# Source: patent US6022855A, “Methods and reagents for inhibiting furin endoprotease” (Oregan Health Sciences University, priority 1995, dated 2000)
# How the values were obtained:
# [1] = target: elastase
# [2] = target: thrombin
# [3] = target: furin endoprotease endogenous to BSC-40 cells
# [4] = tested on: Human furin; type: biochemical; settings: for percent endoprotease activity in presence of each serpin (Furin): relative concentration of serpin inhibitor 100; for inhibition of furin endoprotease activity (FIG. 2, in words): serpin 10 μg/mL, 20 min 37° C. pre-incubation, substrate 50 μM
# [5] = tested on: elastase; type: biochemical; settings: relative concentration of serpin inhibitor 100
# [6] = tested on: furin-mediated processing of HIV-1 gp160 in BSC-40 cells; type: cell-based, African green monkey
# [7] = tested on: syncytium formation IP/IR cells / CD4+ HeLa cells; type: cell-based, human; settings: serpin co-expressed with gp160 in IP/IR cells
# [8] = tested on: furin-mediated processing of pro-β-NGF in BSC-40 cells; type: cell-based, African green monkey
# [9] = tested on: thrombin; type: biochemical
Molecule,percent endoprotease activity in presence of each serpin [1] [%],percent endoprotease activity in presence of each serpin [2] [%],percent of pro-β-NGF processed in VV:mNGF-infected BSC-40 cells with α1 -PDX protein in the medium (densitometry) (% processed at 50 µg/mL) [3],percent endoprotease activity in presence of each serpin (Furin) [4] [%],"inhibition of furin endoprotease activity (FIG. 2, in words) [4]",percent endoprotease activity in presence of each serpin (Elastase) [5] [%],gp160 processing products in co-infected cells (FIG. 4) [6],effect on gp41-mediated syncytia formation (FIGS. 6D-6F) [7],forms of β-NGF secreted by co-infected cells (FIG. 3) [8],"inhibition of thrombin endoprotease activity (FIG. 2, in words) ([9]; FIG. 2)",percent endoprotease activity in presence of each serpin (Thrombin) ([9]; relative concentration of serpin inhibitor 100) [%]
native α1 -antitrypsin,13,–,–,–,–,–,–,–,–,–,–
α1 -antitrypsin Pittsburgh,98,8,–,–,–,–,–,–,–,–,–
α1 -antitrypsin Portland,101,95,10,–,–,–,–,–,–,–,–
"α1 -NAT: native α1-antitrypsin, naturally-occurring protease inhibitor (-Ala-Ile-Pro-Met- at positions 355-358) (protein) EDPQGDAAQKTDTSHHDQDHPTFNKITPNLAEFAFSLYRQLAHQSNSTNIFFSPVSIATAFAMLSLGTKADTHDEILEGLNFNLTQIPEAQIHEGFQELLRTLNQPDSQLQLTTGNGLFLSQGLKLVDKFLEDVKKLYHSEAFTVNFGDTEQAKKQINDYVEKGTQGKIVDLVKELDRDTVFALVNYIFFKGKWERPFEVKDTEEEDFHVDQVTTVKVPMMKRLGMFNIQHCKKLSSWVLLMKYLGNATAIFFLPDEGKLQHLENELTHDIITKFLENEDRRSASLHLPKLSITGTYDLKSVLGQLGITKVFSNGADLSGVTEEAPLKLSKAVHKAVLTIDEKGTEAAGAMFLEAIPMSIPPEVKFNKPFVFLMIEQNTKSPLFMGKVVNPTGK",–,–,–,101,unable to inhibit,13,produced both unprocessed gp160 and processed gp120 and gp41,had no effect on syncytia formation,produced both the processed and unprocessed forms of β-NGF,–,–
"α1 -PIT: naturally-occurring variant α1-antitrypsin Pittsburgh, Met358→Arg358 mutation (Ala355-Ile-Pro-Arg358) (protein) EDPQGDAAQKTDTSHHDQDHPTFNKITPNLAEFAFSLYRQLAHQSNSTNIFFSPVSIATAFAMLSLGTKADTHDEILEGLNFNLTQIPEAQIHEGFQELLRTLNQPDSQLQLTTGNGLFLSQGLKLVDKFLEDVKKLYHSEAFTVNFGDTEQAKKQINDYVEKGTQGKIVDLVKELDRDTVFALVNYIFFKGKWERPFEVKDTEEEDFHVDQVTTVKVPMMKRLGMFNIQHCKKLSSWVLLMKYLGNATAIFFLPDEGKLQHLENELTHDIITKFLENEDRRSASLHLPKLSITGTYDLKSVLGQLGITKVFSNGADLSGVTEEAPLKLSKAVHKAVLTIDEKGTEAAGAMFLEAIPRSIPPEVKFNKPFVFLMIEQNTKSPLFMGKVVNPTGK",–,–,–,97,not furin,98,produced both unprocessed gp160 and processed gp120 and gp41,had no effect on syncytia formation,produced both the processed and unprocessed forms of β-NGF,specifically inhibited,8
